Values of other authors as cited in article PMC8002558.

Molecular target: Fibrinogen (Homo sapiens) (UniProt P02671)
Chain of UniProt P02671 (P02671 36-866, chain 1 of 3): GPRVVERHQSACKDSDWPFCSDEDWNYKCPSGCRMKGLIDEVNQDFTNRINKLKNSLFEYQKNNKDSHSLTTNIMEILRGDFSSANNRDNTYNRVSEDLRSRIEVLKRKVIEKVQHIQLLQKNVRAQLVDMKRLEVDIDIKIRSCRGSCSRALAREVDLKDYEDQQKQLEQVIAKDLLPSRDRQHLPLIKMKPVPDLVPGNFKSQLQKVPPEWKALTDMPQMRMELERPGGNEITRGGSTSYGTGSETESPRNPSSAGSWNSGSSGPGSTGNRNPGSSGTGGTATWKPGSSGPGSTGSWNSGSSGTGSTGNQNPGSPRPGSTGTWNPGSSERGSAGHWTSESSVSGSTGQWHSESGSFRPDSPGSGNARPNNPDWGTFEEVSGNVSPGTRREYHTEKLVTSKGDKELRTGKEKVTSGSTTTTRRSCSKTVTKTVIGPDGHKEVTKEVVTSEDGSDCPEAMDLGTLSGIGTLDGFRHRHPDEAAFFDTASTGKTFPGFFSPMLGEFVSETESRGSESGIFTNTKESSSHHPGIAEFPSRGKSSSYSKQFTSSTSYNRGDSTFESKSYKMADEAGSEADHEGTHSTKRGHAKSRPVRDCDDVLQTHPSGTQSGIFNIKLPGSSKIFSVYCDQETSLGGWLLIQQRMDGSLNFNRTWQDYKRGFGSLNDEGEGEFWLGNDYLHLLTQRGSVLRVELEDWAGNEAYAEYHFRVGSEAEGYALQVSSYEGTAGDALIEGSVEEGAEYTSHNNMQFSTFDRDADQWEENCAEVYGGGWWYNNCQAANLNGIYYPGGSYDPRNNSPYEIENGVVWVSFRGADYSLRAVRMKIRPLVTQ
Chain of UniProt P02671 (P02675 45-491, chain 2 of 3, further chain): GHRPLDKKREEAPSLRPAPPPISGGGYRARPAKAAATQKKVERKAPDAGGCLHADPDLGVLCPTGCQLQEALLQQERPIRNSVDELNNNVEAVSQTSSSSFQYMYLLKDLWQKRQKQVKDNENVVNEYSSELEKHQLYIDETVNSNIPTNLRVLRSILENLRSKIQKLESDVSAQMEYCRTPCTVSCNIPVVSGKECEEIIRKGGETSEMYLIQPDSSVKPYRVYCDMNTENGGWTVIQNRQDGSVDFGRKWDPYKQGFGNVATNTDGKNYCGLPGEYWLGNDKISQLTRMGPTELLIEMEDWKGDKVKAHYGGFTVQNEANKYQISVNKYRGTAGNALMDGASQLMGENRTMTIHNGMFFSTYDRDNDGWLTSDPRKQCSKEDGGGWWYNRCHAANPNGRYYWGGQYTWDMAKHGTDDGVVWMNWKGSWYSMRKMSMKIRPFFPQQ
Chain of UniProt P02671 (P02679 27-453, chain 3 of 3, further chain): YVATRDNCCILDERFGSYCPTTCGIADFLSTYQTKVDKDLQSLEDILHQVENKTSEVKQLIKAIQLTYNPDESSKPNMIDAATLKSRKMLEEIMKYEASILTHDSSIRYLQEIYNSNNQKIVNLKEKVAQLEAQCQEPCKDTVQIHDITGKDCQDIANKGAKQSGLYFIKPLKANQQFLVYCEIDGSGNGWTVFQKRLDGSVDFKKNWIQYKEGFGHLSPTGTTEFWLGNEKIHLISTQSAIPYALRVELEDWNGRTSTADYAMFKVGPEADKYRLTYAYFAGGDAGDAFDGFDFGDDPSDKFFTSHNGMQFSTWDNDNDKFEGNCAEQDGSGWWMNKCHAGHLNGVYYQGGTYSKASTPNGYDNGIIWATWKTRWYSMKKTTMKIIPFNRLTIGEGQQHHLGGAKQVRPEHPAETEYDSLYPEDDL

- Kd: 10 nM
Substance: Factor XIII (plasma) (from UniProt P00488)
